Experimental data taken from US20030165841, “Use of phosphorothiolate polynucleotides in ligating nucleic acids” (published 2003).

Assays:
[1] = molecular target: T1, Topo65 (human topoisomerase I fragment, residues 215-765) (Homo sapiens, UniProt P11387 SEQ:22-572); test: covalent complex by SDS-PAGE shift; enzyme reacts quantitatively
T1 chain: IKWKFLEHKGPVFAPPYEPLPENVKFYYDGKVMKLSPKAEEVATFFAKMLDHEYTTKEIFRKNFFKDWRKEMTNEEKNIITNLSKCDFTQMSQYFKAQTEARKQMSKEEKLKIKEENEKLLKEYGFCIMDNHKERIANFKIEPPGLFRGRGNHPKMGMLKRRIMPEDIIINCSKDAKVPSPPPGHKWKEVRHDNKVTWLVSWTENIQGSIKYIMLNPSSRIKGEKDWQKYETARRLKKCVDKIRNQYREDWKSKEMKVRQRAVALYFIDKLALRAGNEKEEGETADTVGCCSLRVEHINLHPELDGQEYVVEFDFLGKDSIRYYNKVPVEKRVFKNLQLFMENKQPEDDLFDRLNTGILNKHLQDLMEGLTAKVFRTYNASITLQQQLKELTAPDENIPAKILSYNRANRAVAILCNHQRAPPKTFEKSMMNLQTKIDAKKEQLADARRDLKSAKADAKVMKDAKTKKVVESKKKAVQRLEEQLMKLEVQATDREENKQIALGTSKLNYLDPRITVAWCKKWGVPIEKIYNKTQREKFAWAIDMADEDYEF
Method: (§1) The duplex substrates shown in FIGS. 3A and 3B were reacted overnight at room temperature with Topo65. The reaction mixtures contained 3 μM Topo65, 10 μM duplex substrate, 10 mM Tris-HCl, pH 7.5, 100 mM KCl, 10 mM MgCl2, 1 mM EDTA, and 2 mM DTT. The reaction products were adjusted to 1 M NaCl or NOT and then analyzed by 10% SDS-PAGE and Coomassie Blue staining (lanes 4-7). FIG. 4 is a photograph of the stained gel.
As a control, Topo65 was allowed to react with a duplex 22-mer suicide substrate. The suicide substrate contains a centrally positioned 5′-bridging phosphorothiolate.

[2] = molecular target: T1, Topo65 (human topoisomerase I fragment, …); test: no gel shift with single strand alone
Method: as §1
This experiment was repeated after removal of the DMT from the AS oligonucleotides by acid treatment, and an identical gel-shift was observed on reaction of “DMT off” oligonucleotide complexes with Topo65. However, no gel shift was observed if duplex generated from ratios of single strand oligonucleotides alone, for example, TCRIBamS, TCRIBamAS, TCRIBstBS or TCRIBstBAS alone.

B1: suicide 22-mer duplex (dsDNA)
DNA 1: AAAAAGACTTAGAAAAATTTTT
DNA 2: AAAAATTTTTCTAAGTCTTTTT
modifications: 5'-bridging phosphorothiolate between GACTT and AGAAAA of top strand
binding result [1]: binds

AATTCGCGGCCGCAAAAAGACTTGATC (ssDNA, 5'-bridging phosphorothiolate 4 bases from 3' end) [TCRIBamS alone]
binding result [2]: no binding

GATCAAGTCTTTTTGCGGCCGCG (ssDNA) [TCRIBamAS alone]
binding result [2]: no binding

AATTCGCGGCCGCAAAAAGACTTCG (ssDNA, 5'-bridging phosphorothiolate 2 bases from 3' end) [TCRIBstBS alone]
binding result [2]: no binding

CGAAGTCTTTTTGCGGCCGCG (ssDNA) [TCRIBstBAS alone]
binding result [2]: no binding
